{"source": "paper PMC2791445", "about": "“A Novel Phase Variation Mechanism in the Meningococcus Driven by a Ligand-Responsive Repressor and Differential Spacing of Distal Promoter Elements” (PLoS Pathogens, 2009)", "proteins": {"B1": {"name": "NadR transcriptional regulator protein (NMB1843) of Neisseria meningitidis MC58, recombinant with an N-terminal histidine tag (natural protein)", "chain": "MPTQSKHASINIGLIQAREALMTQFRPILNQANITDQQWRIIRLLAENGTLDFQDLANQACILRPSLTGILTRLEKAGLVVRLKPSNDQRRVFLKLTAEGEKLYEEIGEEVDERYDAIEEVLGREKMLLLKDLLAELAKIEDALNS", "notes": "NadR (NMB1843), MarR family transcriptional regulator, N. meningitidis MC58; gene amplified from the MC58 genome with primers 1843-F (at the ATG) and 1843-R (past the stop codon), cloned as a 448 bp NdeI-BamHI fragment into pET15b; also called 1843 protein"}}, "target": "the molecule itself", "test": "cross-linking; in vitro cross-linking of purified NadR, cross-linked species resolved on SDS-PAGE; data not shown", "data": [{"protein": "B1", "values": [{"measurement": "stoichiometry N", "result": 2}]}]}
